Measured values reported in patent US20260116991A1 (HAINAN SIMCERE ZAIMING PHARMACEUTICAL, published 2026).

B1: hAb005LH2L1 (antibody, human IgG1, V domains shown)
VH: EVQLVQSGAEVKKPGASVKVSCKASGYTFTDYEMHWVRQAPGQGLEWMGAIDPETGNTAYIQKFKGRVTLTTDKSTSTAYMELRSLRSDDTAVYYCTRFYSYSHWGQGTTVTVSS
VL: DIVMTQTPLSLPVTPGEPASISCRSSQSLVHSNGNTYLHWYLQKPGQSPQLLIYKVSNRFSGVPDRFSGSGSGTDFTLKISRVEAEDVGVYYCSQNTHVPPTFGGGTKVEIK
notes: Humanized F3.54.12; VH H2 + VL L1; expressed as human IgG1
B2: hAb005LH3L1b (antibody, human IgG1, V domains shown)
VH: EVQLVQSGAEVKKPGASVKVSCKASGYTFTDYEMHWVRQAPGQGLEWIGAIDPETGNTAYIQKFKGRATLTTDKSTSTAYMELRSLRSDDTAVYYCTRFYSYSHWGQGTTVTVSS
VL: DIVMTQTPLSLPVTPGEPASISCRSSQSLVHSNRNTYLHWYLQKPGQSPQLLIYKVSNRFSGVPDRFSGSGSGTDFTLKISRVEAEDVGVYYCSQNTHVPPTFGGGTKVEIK
notes: Humanized F3.54.12; VH H3 + VL L1b; expressed as human IgG1
B3: hAb005LH1L1a (antibody, human IgG1, V domains shown)
VH: EVQLVQSGAEVKKPGASVKVSCKASGYTFTDYEMHWVRQAPGQGLEWMGAIDPETGNTAYIQKFKGRVTMTTDKSTSTAYMELRSLRSDDTAVYYCTRFYSYSHWGQGTTVTVSS
VL: DIVMTQTPLSLPVTPGEPASISCRSSQSLVHSDGNTYLHWYLQKPGQSPQLLIYKVSNRFSGVPDRFSGSGSGTDFTLKISRVEAEDVGVYYCSQNTHVPPTFGGGTKVEIK
notes: Humanized F3.54.12; VH H1 + VL L1a; expressed as human IgG1
B4: hAb005LH1L1 (antibody, human IgG1, V domains shown)
VH: EVQLVQSGAEVKKPGASVKVSCKASGYTFTDYEMHWVRQAPGQGLEWMGAIDPETGNTAYIQKFKGRVTMTTDKSTSTAYMELRSLRSDDTAVYYCTRFYSYSHWGQGTTVTVSS
VL: DIVMTQTPLSLPVTPGEPASISCRSSQSLVHSNGNTYLHWYLQKPGQSPQLLIYKVSNRFSGVPDRFSGSGSGTDFTLKISRVEAEDVGVYYCSQNTHVPPTFGGGTKVEIK
notes: Humanized F3.54.12; VH H1 + VL L1; expressed as human IgG1
B5: hAb005LH1L1b (antibody, human IgG1, V domains shown)
VH: EVQLVQSGAEVKKPGASVKVSCKASGYTFTDYEMHWVRQAPGQGLEWMGAIDPETGNTAYIQKFKGRVTMTTDKSTSTAYMELRSLRSDDTAVYYCTRFYSYSHWGQGTTVTVSS
VL: DIVMTQTPLSLPVTPGEPASISCRSSQSLVHSNRNTYLHWYLQKPGQSPQLLIYKVSNRFSGVPDRFSGSGSGTDFTLKISRVEAEDVGVYYCSQNTHVPPTFGGGTKVEIK
notes: Humanized F3.54.12; VH H1 + VL L1b; expressed as human IgG1
B6: hAb005LH2L1a (antibody, human IgG1, V domains shown)
VH: EVQLVQSGAEVKKPGASVKVSCKASGYTFTDYEMHWVRQAPGQGLEWMGAIDPETGNTAYIQKFKGRVTLTTDKSTSTAYMELRSLRSDDTAVYYCTRFYSYSHWGQGTTVTVSS
VL: DIVMTQTPLSLPVTPGEPASISCRSSQSLVHSDGNTYLHWYLQKPGQSPQLLIYKVSNRFSGVPDRFSGSGSGTDFTLKISRVEAEDVGVYYCSQNTHVPPTFGGGTKVEIK
notes: Humanized F3.54.12; VH H2 + VL L1a; expressed as human IgG1
B7: hAb005LH3L1 (antibody, human IgG1, V domains shown)
VH: EVQLVQSGAEVKKPGASVKVSCKASGYTFTDYEMHWVRQAPGQGLEWIGAIDPETGNTAYIQKFKGRATLTTDKSTSTAYMELRSLRSDDTAVYYCTRFYSYSHWGQGTTVTVSS
VL: DIVMTQTPLSLPVTPGEPASISCRSSQSLVHSNGNTYLHWYLQKPGQSPQLLIYKVSNRFSGVPDRFSGSGSGTDFTLKISRVEAEDVGVYYCSQNTHVPPTFGGGTKVEIK
notes: Humanized F3.54.12; VH H3 + VL L1; expressed as human IgG1
B8: hAb005LH2L1b (antibody, human IgG1, V domains shown)
VH: EVQLVQSGAEVKKPGASVKVSCKASGYTFTDYEMHWVRQAPGQGLEWMGAIDPETGNTAYIQKFKGRVTLTTDKSTSTAYMELRSLRSDDTAVYYCTRFYSYSHWGQGTTVTVSS
VL: DIVMTQTPLSLPVTPGEPASISCRSSQSLVHSNRNTYLHWYLQKPGQSPQLLIYKVSNRFSGVPDRFSGSGSGTDFTLKISRVEAEDVGVYYCSQNTHVPPTFGGGTKVEIK
notes: Humanized F3.54.12; VH H2 + VL L1b; expressed as human IgG1
B9: hAb005LH3L1a (antibody, human IgG1, V domains shown)
VH: EVQLVQSGAEVKKPGASVKVSCKASGYTFTDYEMHWVRQAPGQGLEWIGAIDPETGNTAYIQKFKGRATLTTDKSTSTAYMELRSLRSDDTAVYYCTRFYSYSHWGQGTTVTVSS
VL: DIVMTQTPLSLPVTPGEPASISCRSSQSLVHSDGNTYLHWYLQKPGQSPQLLIYKVSNRFSGVPDRFSGSGSGTDFTLKISRVEAEDVGVYYCSQNTHVPPTFGGGTKVEIK
notes: Humanized F3.54.12; VH H3 + VL L1a; expressed as human IgG1
B10: hAb003LH3L1a (antibody, human IgG1, V domains shown)
VH: EVQLVQSGAEVKKPGSSVKVSCKASGYRFTDYEMHWVRQAPGQGLEWMGTIDPETGNTAYTQKFMDRVTLTADKSTSTAYMELSSLRSEDTAVYYCTRGYSFTYWGQGTLVTVSS
VL: DIVMTQTPLSLPVTPGEPASISCRSSQNIVHSDGNTYLQWYLQKPGQSPQLLIFKVSNRFSGVPDRFSGSGSGTDFTLKISRVEAEDVGVYYCFQGSHVPFTFGQGTKLEIK
notes: Humanized F2.154.1; VH H3 + VL L1a; expressed as human IgG1
B11: hAb003LH3L1b (antibody, human IgG1, V domains shown)
VH: EVQLVQSGAEVKKPGSSVKVSCKASGYRFTDYEMHWVRQAPGQGLEWMGTIDPETGNTAYTQKFMDRVTLTADKSTSTAYMELSSLRSEDTAVYYCTRGYSFTYWGQGTLVTVSS
VL: DIVMTQTPLSLPVTPGEPASISCRSSQNIVHSNRNTYLQWYLQKPGQSPQLLIFKVSNRFSGVPDRFSGSGSGTDFTLKISRVEAEDVGVYYCFQGSHVPFTFGQGTKLEIK
notes: Humanized F2.154.1; VH H3 + VL L1b; expressed as human IgG1

Experiments:
[1] = target: biotinylated labeled human GPC3 protein (produced in-house) (human, UniProt P51654 25-559, limits assumed, biotinylated (Dojindo, Cat. No. LK03); sites not stated); experiment: ELISA, biotinylated human GPC3 protein
[2] = target: T1, human GPC3 on CHO-K1-human GPC3 cells (CHOK1-hGPC3.2B5) (human, UniProt P51654 25-554); experiment: FACS, CHOK1-hGPC3.2B5 cells;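 also: flow cytometry of humanized antibodies binding to the cells over one hour in the cold, read as cell mean fluorescence intensity, with EC50 obtained by curve fitting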
T1 construct: whole, on cells
Procedure: The desired cells were expanded to a logarithmic growth phase in a T-75 cell culture flask, the medium was removed by pipetting, and the cells were washed twice with a PBS buffer, and digested with trypsin. Then a complete medium was added to stop the digestion, and the cells were blown into a single cell suspension. After counting, the cells were centrifuged, and the cell pellet was resuspended with an FACS buffer (PBS+2% fetal bovine serum) to 2×10⁶ cells/mL. The cell resuspension solution was added to a 96-well FACS reaction plate at 50 μl/well, and a humanized antibody sample to be tested was added at 50 μl/well for incubation at 4° C. for 1 h. […] After the plate was centrifuged and washed 3 times with a PBS buffer, 100 μl of the resulting solution was assayed and analyzed by FACS (FACS Canto™, purchased from BD Biosciences). Data analysis was performed by software (FlowJo) to obtain the mean fluorescence intensity (MFI) of the cells. Then, analysis was performed by software (GraphPad Prism8), data were fitted, and EC₅₀ values were calculated.

Binder	OD450 at 0.0008 nM [1] [OD450]	OD450 at 0.004 nM [1] [OD450]	OD450 at 0.02 nM [1] [OD450]	OD450 at 0.11 nM [1] [OD450]	OD450 at 0.53 nM [1] [OD450]	OD450 at 2.67 nM [1] [OD450]	OD450 at 13.33 nM [1] [OD450]	OD450 at 66.66 nM [1] [OD450]	EC50 [2] [nM]	Max MFI [2] [MFI]
B1	0.083	0.185	0.464	0.812	1.01	1.12	1.12	1.16	0.736	4540
B2	0.074	0.169	0.426	0.838	0.952	1.1	1.03	1.04	0.558	4740
B3	0.053	0.05	0.051	0.057	0.056	0.113	0.208	0.558	315	122
B4	0.078	0.202	0.442	0.84	1.1	1.17	1.1	1.17	0.563	4500
B5	0.075	0.172	0.45	0.812	1.04	1.16	1.04	1.13	0.491	4610
B6	0.049	0.049	0.053	0.048	0.066	0.148	0.249	0.589	118	153
B7	0.079	0.162	0.441	0.715	0.923	1.1	1.07	1.12	0.734	4700
B8	0.074	0.194	0.43	0.856	1.05	1.04	1.07	1.16	0.54	4770
B9	0.047	0.049	0.049	0.05	0.058	0.101	0.153	0.402	133	136
B10	0.086	0.128	0.423	1.3	2.04	2.13	2.15	2.48	6.02	2240
B11	0.157	0.381	1.08	2	2.54	2.44	2.59	2.61	0.647	4980
